Experimental data taken from US20240124560A1.

How the values were obtained:
2F5-specific peptide = assay: ELISA on peptide MPER (659-671), antibody titrated
[1] = target: HIV-1 Env of isolate COT6, mutant D674T (HIV-1); assay: cell-based or functional assay
[2] = target: HIV-1 Env of isolate COT6 (wild-type) (HIV-1); assay: cell-based or functional assay
[3] = target: HIV-1 Env of isolate COT6, mutant D674E (HIV-1); assay: cell-based or functional assay

Substance: 2F5 (antibody)
- EC50 (read off the curve) (2F5-specific peptide): 6 ng/mL

Substance: 10E8 (antibody)
- Fold increase in IC50 relative to wild-type COT6 [1]: 36 fold
- Fold increase in IC50 (wild-type COT6, the reference) [2]: 1 fold
- Fold increase in IC50 relative to wild-type COT6 [3]: 17.5 fold
